Assay results: paper PMC9599917, “Reshaping the Binding Pocket of the Neurotransmitter:Solute Symporter (NSS) Family Transporter SLC6A14 (ATB^0,+) Selectively Reduces Access for Cationic Amino Acids and Derivatives” (Biomolecules, 2022)
Changes are numbered by the printed parent chain. In names and notes the source's numbering stands.

B1: SLC6A14 (ATB0,+) (Homo sapiens) (protein)
chain: MDKLKCPSFFKCREKEKVSASSENFHVGENDENQDRGNWSKKSDYLLSMIGYAVGLGNVWRFPYLTYSNGGGAFLIPYAIMLALAGLPLFFLECSLGQFASLGPVSVWRILPLFQGVGITMVLISIFVTIYYNVIIAYSLYYMFASFQSELPWKNCSSWSDKNCSRSPIVTHCNVSTVNKGIQEIIQMNKSWVDINNFTCINGSEIYQPGQLPSEQYWNKVALQRSSGMNETGVIVWYLALCLLLAWLIVGAALFKGIKSSGKVVYFTALFPYVVLLILLVRGATLEGASKGISYYIGAQSNFTKLKEAEVWKDAATQIFYSLSVAWGGLVALSSYNKFKNNCFSDAIVVCLTNCLTSVFAGFAIFSILGHMAHISGKEVSQVVKSGFDLAFIAYPEALAQLPGGPFWSILFFFMLLTLGLDSQFASIETITTTIQDLFPKVMKKMRVPITLGCCLVLFLLGLVCVTQAGIYWVHLIDHFCAGWGILIAAILELVGIIWIYGGNRFIEDTEMMIGAKRWIFWLWWRACWFVITPILLIAIFIWSLVQFHRPNYGAIPYPDWGVALGWCMIVFCIIWIPIMAIIKIIQAKGNIFQRLISCCRPASNWGPYLEQHRGERYKDMVDPKKEADHEIPTVSGSRKPE
notes: human SLC6A14 expressed in Xenopus laevis oocytes
B2: SLC6A14 (ATB0,+) (Homo sapiens; V128I) (protein)
chain: B1 chain with V128I
notes: human SLC6A14-V128I expressed in Xenopus laevis oocytes
B3: SLC6A14 (ATB0,+) (Homo sapiens; V128F) (protein)
chain: B1 chain with V128F
notes: human SLC6A14-V128F expressed in Xenopus laevis oocytes

Legend:
Assay type in all cases: cell-based, Homo sapiens
[1] = substrate: N=C(N)NCCC[C@H](N)C(=O)O; test: two-electrode voltage clamp in oocytes (Km); competition with [3H]serine uptake; conditions: Na+ and Cl- substrate binding pocket, competes with serine; lost in V128F
[2] = substrate: N[C@@H](CO)C(=O)O; test: two-electrode voltage clamp in oocytes (Km); radiolabelled uptake; conditions: Na+ and Cl-
[3] = substrate: N=C(N)NCCC[C@H](N)C(=O)O; test: two-electrode voltage clamp in oocytes (Km); conditions: Na+ and Cl-
[4] = substrate: N[C@@H](CO)C(=O)O; test: two-electrode voltage clamp in oocytes (Km); radiolabelled uptake; conditions: Na+ and Cl-; remark: listed apart in the source
Description: two-electrode voltage clamp in oocytes (Km); radiolabelled uptake on SLC6A14 (ATB0,+) | In SLC6A14-V128I, the affinity for serine increased by five-fold

Protein	Km [1]	Km [2]	Km [3]	Km [4]
B1	91 ± 11 µM	106 ± 5 µM		
B2			60 ± 8 µM	20 ± 3 µM
B3		142 ± 11 µM		
